Data from patent US20190241648A1 (STATEN BIOTECHNOLOGY B V, published 2019).
Ends that are not written are not given here.

Assays:
Experiment in all cases: peptide microarray
[1] = biological target: T1, ApoC3 peptide … G41R (human, also: cyclic constrained)
T1 peptide: ARRWVTDGFSSLK
How it was run: (§1)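 Peptide microarrays of ApoC3-derived peptides incubated with antibody samples, then stained with goat anti-human IgG (Fc) DyLight680 (1:5000) and anti-HA DyLight800 (1:2000) control. Read-out by fluorescence scanning at intensities 7/7 (red/green); a secondary-only pre-stain checked background, HA frame peptides served as quality control.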

[2] = biological target: T2, ApoC3 peptide … R40H (human, not fully specified (bridges); also: cyclic constrained)
T2 peptide: AHGWVTDGFSSLK
How it was run: as §1

[3] = biological target: T3, ApoC3 peptide … V43M (human, not fully specified; cyclic constrained)
T3 peptide: ARGWMTDGFSSLK
How it was run: as §1

[4] = biological target: T4, ApoC3 peptide … F47G (human, not fully specified (bridges); also: cyclic constrained)
T4 peptide: ARGWVTDGGSSLK
How it was run: as §1

[5] = biological target: T5, ApoC3 peptide … W42K (human, not fully specified (bridges); also: cyclic constrained)
T5 peptide: ARGKVTDGFSSLK
How it was run: as §1

[6] = biological target: T6, ApoC3 peptide … V43R (human, not fully specified (bridges); also: cyclic constrained)
T6 peptide: ARGWRTDGFSSLK
How it was run: as §1

[7] = biological target: T7, ApoC3 peptide … S48F (human, not fully specified; cyclic constrained)
T7 peptide: ARGWVTDGFFSLK
How it was run: as §1

[8] = biological target: T8, ApoC3 peptide … V43I (human, not fully specified; cyclic constrained)
T8 peptide: ARGWITDGFSSLK
How it was run: as §1

[9] = biological target: T9, ApoC3 peptide … G46I (human, not fully specified (bridges); also: cyclic constrained)
T9 peptide: ARGWVTDIFSSLK
How it was run: as §1

[10] = biological target: T10, ApoC3 peptide … L50T (human, not fully specified (bridges); also: cyclic constrained)
T10 peptide: ARGWVTDGFSSTK
How it was run: as §1

[11] = biological target: T11, ApoC3 peptide … L50N (human, not fully specified; cyclic constrained)
T11 peptide: ARGWVTDGFSSNK
How it was run: as §1

[12] = biological target: T12, ApoC3 peptide … K51F (human, thioether (positions not given here); also: cyclic constrained)
T12 peptide: ARGWVTDGFSSLF
How it was run: as §1

[13] = biological target: T13, ApoC3 peptide … G46E (human, not fully specified (bridges); also: cyclic constrained)
T13 peptide: ARGWVTDEFSSLK
How it was run: as §1

[14] = biological target: T14, ApoC3 peptide … S49V (human, not fully specified (bridges); also: cyclic constrained)
T14 peptide: ARGWVTDGFSVLK
How it was run: as §1

[15] = biological target: T15, ApoC3 peptide … R40N (human, not fully specified (bridges); also: cyclic constrained)
T15 peptide: ANGWVTDGFSSLK
How it was run: as §1

[16] = biological target: T16, ApoC3 peptide … W42A (human, not fully specified (bridges); also: cyclic constrained)
T16 peptide: ARGAVTDGFSSLK
How it was run: as §1

[17] = biological target: T17, ApoC3 peptide … K51T (human, not fully specified; cyclic constrained)
T17 peptide: ARGWVTDGFSSLT
How it was run: as §1

[18] = biological target: T18, ApoC3 peptide … L50P (human, not fully specified (bridges); also: cyclic constrained)
T18 peptide: ARGWVTDGFSSPK
How it was run: as §1

[19] = biological target: T19, ApoC3 peptide … S48L (human, not fully specified (bridges); also: cyclic constrained)
T19 peptide: ARGWVTDGFLSLK
How it was run: as §1

[20] = biological target: T20, ApoC3 peptide … A39P (human, cyclic constrained)
T20 peptide: PRGWVTDGFSSLK
How it was run: as §1

[21] = biological target: T21, ApoC3 peptide … W42H (human, not fully specified (bridges); also: cyclic constrained)
T21 peptide: ARGHVTDGFSSLK
How it was run: as §1

[22] = biological target: T22, ApoC3 peptide … D45C (human, not fully specified (bridges); also: cyclic constrained)
T22 peptide: ARGWVTCGFSSLK
How it was run: as §1

[23] = biological target: T23, ApoC3 peptide … W42N (human, not fully specified (bridges); also: cyclic constrained)
T23 peptide: ARGNVTDGFSSLK
How it was run: as §1

[24] = biological target: T24, ApoC3 peptide … A39K (human, cyclic constrained)
T24 peptide: KRGWVTDGFSSLK
How it was run: as §1

[25] = biological target: T25, ApoC3 peptide … V43N (human, not fully specified; cyclic constrained)
T25 peptide: ARGWNTDGFSSLK
How it was run: as §1

[26] = biological target: T26, ApoC3 peptide … W42P (human, not fully specified (bridges); also: cyclic constrained)
T26 peptide: ARGPVTDGFSSLK
How it was run: as §1

[27] = biological target: T27, ApoC3 peptide … V43K (human, not fully specified; cyclic constrained)
T27 peptide: ARGWKTDGFSSLK
How it was run: as §1

[28] = biological target: ApoC3 peptide … S49C (human, cyclic constrained)
How it was run: as §1

[29] = biological target: T28, ApoC3 peptide … K51C (human, thioether (positions not given here); also: cyclic constrained)
T28 peptide: ARGWVTDGFSSLC
How it was run: as §1

[30] = biological target: T29, ApoC3 peptide … A39S (human, not fully specified (bridges); also: cyclic constrained)
T29 peptide: SRGWVTDGFSSLK
How it was run: as §1

B1: anti-ApoC3 antibody 14C7 (antibody, V domains shown)
VH: QVQVQESGPGLVKPSQTLSLTCTVSGGSITTNSYYWSWIRQPPGKGLEWMGAIDYSGDTYYSPSLKSRTSISRDTSKNQFTLQLTSVTPEDTAVYYCVSRIPTGEYWGQGTQVTVSS
VL: QTVVTQEPSLSVSPGGTVTLTCGLNSGSVTSSNYPDWYQQTPGQAPRLLIYNTNSRHSGVPSRFSGSISGNKAALTITGAQPEDEADYYCALYMGSDSVVFGGGTHLTVL
notes: it was detected with goat anti-human IgG (Fc); also called mAb 14C7; llama antibody 14C7
- % of binding to wild-type peptide [1]: 19.4%
- % of binding to wild-type peptide [2]: 44.4%
- % of binding to wild-type peptide [3]: 20.9%
- % of binding to wild-type peptide [4]: 0%
- % of binding to wild-type peptide [5]: 136%
- % of binding to wild-type peptide [6]: 15.1%
- % of binding to wild-type peptide [7]: 9.29%
- % of binding to wild-type peptide [8]: 41%
- % of binding to wild-type peptide [9]: 0%
- % of binding to wild-type peptide [10]: 0%
- % of binding to wild-type peptide [11]: 0%
- % of binding to wild-type peptide [12]: 6.24%
- % of binding to wild-type peptide [13]: 0%
- % of binding to wild-type peptide [14]: 0.59%
- % of binding to wild-type peptide [15]: 64.8%
- % of binding to wild-type peptide [16]: 116%
- % of binding to wild-type peptide [17]: 17.5%
- % of binding to wild-type peptide [18]: 0%
- % of binding to wild-type peptide [19]: 19.6%
- % of binding to wild-type peptide [20]: 166%
- % of binding to wild-type peptide [21]: 48.6%
- % of binding to wild-type peptide [22]: 11.2%
- % of binding to wild-type peptide [23]: 118%
- % of binding to wild-type peptide [24]: 72.9%
- % of binding to wild-type peptide [25]: 1.36%
- % of binding to wild-type peptide [26]: 18.6%
- % of binding to wild-type peptide [27]: 25.4%
- % of binding to wild-type peptide [28]: 0%
- % of binding to wild-type peptide [29]: 0%
- % of binding to wild-type peptide [30]: 81.4%
